Experimental data from publication PMC2175121.

Target: cell-surface GalNAcPTase (chicken (endogenous in E9 chick retina cells))

- inhibition of N-cadherin-mediated adhesion of E9 retina cells, RP at 20 μg/ml: 60%
Substance: Full-length neurocan fusion protein (RP) (natural protein)
